# In paper PMC10215022 (mAbs, 2023):
# Target: SARS-CoV-2 Wuhan (WT) spike protein RBD, His-tagged (SARS-CoV-2 Wuhan (WT), UniProt P0DTC2)
# Assay: SPR
Binder,Kd [pM],koff [s⁻¹],kon [M⁻¹ s⁻¹]
"casirivimab (REGN10933) (antibody, V domains shown) VH: QVQLVESGGGLVKPGGSLRLSCAASGFTFSDYYMSWIRQAPGKGLEWVSYITYSGSTIYYADSVKGRFTISRDNAKSSLYLQMNSLRAEDTAVYYCARDRGTTMVPFDYWGQGTLVTVSS VL: DIQMTQSPSSLSASVGDRVTITCQASQDITNYLNWYQQKPGKAPKLLIYAASNLETGVPSRFSGSGSGTDFTFTISGLQPEDIATYYCQQYDNLPLTFGGGTKVEIK",71,0.00021,3e+06
"imdevimab (REGN10987) (antibody, V domains shown) VH: QVQLVESGGGVVQPGRSLRLSCAASGFTFSNYAMYWVRQAPGKGLEWVAVISYDGSNKYYADSVKGRFTISRDNSKNTLYLQMNSLRTEDTAVYYCASGSDYGDYLLVYWGQGTLVTVSS VL: QSALTQPASVSGSPGQSITISCTGTSSDVGGYNYVSWYQQHPGKAPKLMIYDVSKRPSGVSNRFSGSKSGNTASLTISGLQSEDEADYYCNSLTSISTWVFGGGTKLTVL",87,0.00029,3.4e+06
